According to article PMC10957913, “GAS41 modulates ferroptosis by anchoring NRF2 on chromatin” (Nature Communications, 2024):

Target: T1, Flag-tagged GAS41, purified (human, UniProt O95619 1-227)
T1 construct: GAS41, human, full-length cDNA amplified from A549 cDNA; also called purified GAS41 proteins
Test: pull-down; GST or GST-NRF2 fragments on GST Bind Resin incubated with purified GAS41 in BC200 buffer for 4 h at 4 °C, washed six times with BC200; western blot
Details: both partners purified

T1 sequence (O95619 whole entry): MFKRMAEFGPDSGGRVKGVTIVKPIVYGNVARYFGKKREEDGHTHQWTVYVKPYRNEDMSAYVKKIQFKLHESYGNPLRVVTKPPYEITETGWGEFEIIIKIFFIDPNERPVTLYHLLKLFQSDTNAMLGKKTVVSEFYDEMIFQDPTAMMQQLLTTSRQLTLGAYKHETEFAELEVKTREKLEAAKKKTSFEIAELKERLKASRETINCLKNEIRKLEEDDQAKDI

binding result: binds
B1: GST-NRF2-CT (Neh1 and Neh3 domains of NRF2, AA. 434-605) (domain or fragment, UniProt Q16236 434-605, looked up)
chain: PGHRKTPFTKDKHSSRLEAHLTRDELRAKALHIPFPVEKIINLPVVDFNEMMSKEQFNEAQLALIRDIRRRGKNKVAAQNCRKRKLENIVELEQDLDHLKDEKEKLLKEKGENDKSLHLLKKQLSTLYLEVFSMLRDEDGKPYSPSEYSLQQTRDGNVFLVPKSKKPDVKKN
notes: NRF2, Neh1 and Neh3 domains, amino acids 434-605; That the 434-605 fragment is the construct called GST-NRF2-CT in the methods is inferred
